Data: article PMC5897418, “A Synthesized Glucocorticoid- Induced Leucine Zipper Peptide Inhibits Retinal Müller Cell Gliosis” (Frontiers in Pharmacology, 2018)
No end group written: not given here.

Key:
Müller cells [1] = details: 10 μM FITC-labeled GILZ-p, 6 and 12 h, confocal immunofluorescence
Procedure: Müller cells were cultured on 6-well plates and starved in serum-free DMEM F12 for 24 h. The cells were then treated with 10 μM fluorescein isothiocyanate (FITC)-labeled GILZ-p for 6 and 12 h, respectively. After treatment, the Müller cells were washed with PBS, fixed in 4% paraformaldehyde (Sigma-Aldrich Corp., St. Louis, MO, United States), and permeabilized in 0.1% Triton X-100 (Promega, Madison, WI, United States) for 10 min. The cells were counterstained with 4′6-diamidino-2-phenylindole (DAPI) (Sigma-Aldrich Corp.) and examined under a laser confocal microscope (Leica Microsystems, Wetzlar, Hesse-Darmstadt, Germany).

Müller cells [2] = details: 10 μM FITC-labeled GILZ-p, 15 min, serum-starved primary rat Müller cells, flow cytometry
Procedure: Müller cells were cultured on 6-well plates and starved in serum-free DMEM F12 for 24 h.
Müller cells were cultured on 6-well plates and starved in serum-free DMEM F12 for 24 h. […] Click here for additional data file.

[3] = water and culture medium
Müller cells [4] = details: 10, 50, 100, and 150 μM, 24 h, primary rat Müller cells, n = 6, compared with control group
Procedure: The viability of Müller cells was determined by the cell counting kit-8 (CCK-8) assay. Briefly, 0.5 × 10^5 cells per well were seeded in 96-well plates and allowed to attach overnight. Then, the culture media were replaced with fresh media containing different concentrations of GILZ-p (0, 10, 50, 100, and 150 μM). After 24 h, 10 μL CCK-8 (Dojindo, Kumamoto, Japan) solution was added to each well, and the plates were incubated for another 2 h. Measurements of optical density were obtained at a wavelength of 450 nm using a spectrophotometer.

[5] = molecular target: nuclear factor (NF)-κB p65 (rat (endogenous in primary retinal …, UniProt Q7TQN4 1-550)); assay: cell-based or functional assay
Chain of nuclear factor (NF)-κB p65 (rat (Q7TQN4 whole entry): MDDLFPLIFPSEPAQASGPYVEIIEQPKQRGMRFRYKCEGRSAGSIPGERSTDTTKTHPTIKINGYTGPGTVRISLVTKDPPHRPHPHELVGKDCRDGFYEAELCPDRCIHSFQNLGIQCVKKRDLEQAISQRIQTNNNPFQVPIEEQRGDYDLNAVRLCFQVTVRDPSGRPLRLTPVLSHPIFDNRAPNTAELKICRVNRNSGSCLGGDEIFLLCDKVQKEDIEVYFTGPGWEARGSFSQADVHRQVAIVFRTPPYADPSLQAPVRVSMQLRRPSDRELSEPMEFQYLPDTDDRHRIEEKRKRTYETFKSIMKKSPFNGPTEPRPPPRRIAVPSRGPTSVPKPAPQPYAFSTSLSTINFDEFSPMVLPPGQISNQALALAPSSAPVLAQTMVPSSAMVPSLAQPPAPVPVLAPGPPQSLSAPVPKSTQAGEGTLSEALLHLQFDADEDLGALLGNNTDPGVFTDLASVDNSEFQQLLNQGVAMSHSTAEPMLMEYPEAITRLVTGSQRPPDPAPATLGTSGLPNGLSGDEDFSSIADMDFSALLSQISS

| Molecule | intracellular localisation of GILZ-p (Müller cells [1]) | Müller cells associated with GILZ-p (Müller cells [2]) | solubility [3] | cytotoxicity (cell viability, CCK-8) (Müller cells [4]) | IC50 of GILZ-p (without the His tag) for inhibiting LPS-induced ICAM-1 expression in Müller cells (western blot, 24 h) [5] | IC50 of GILZ-p (without the His tag) for inhibiting LPS-induced IL-1β expression in Müller cells (western blot, 24 h) [5] | IC50 of GILZ-p (without the His tag) for inhibiting LPS-induced MCP-1 expression in Müller cells (western blot, 24 h) [5] | IC50 of GILZ-p (without the His tag) for inhibiting LPS-induced TNFα expression in Müller cells (western blot, 24 h) [5] | IC50 of GILZ-p (without the His tag) for inhibiting the LPS-induced downregulation of AQP4 in Müller cells (western blot, 24 h) [5] | IC50 of GILZ-p (without the His tag) for inhibiting the LPS-induced upregulation of GFAP in Müller cells (western blot, 24 h) [5] |
| --- | --- | --- | --- | --- | --- | --- | --- | --- | --- | --- |
| YGRKKRRQRRRKTLASPEQLEKFQSRLSPEEPAPEAPETPEAPGGSAV [GILZ-p] | aggregated in the cytoplasm | about 7.92% | water-soluble and fully dissolved in culture medium | no detectable toxicity | – | – | – | – | – | – |
| YGRKKRRQRRRKTLASPEQLEKFQSRLSPEEPAPEAPETPEAPGGSAV [His-tag-GILZ-p (TAT-GILZ 98-134 peptide with a C-terminal 6x His tag)] | – | – | – | – | 7.13 µM | 8.93 µM | 5.82 µM | 8.77 µM | 2.32 µM | 11.2 µM |
